{"source": "patent US20260209291A1", "about": "(KAMINO, published 2026)", "binders": {"B1": {"name": "native full-length follistatin315 (FST315) (other)", "chain": "GNCWLRQAKNGRCQVLYKTELSKEECCSTGRLSTSWTEEDVNDNTLFKWMIFNGGAPNCIPCKETCENVDCGPGKKCRMNKKNKPRCVCAPDCSNITWKGPVCGLDGKTYRNECALLKARCKEQPELEVQYQGRCKKTCRDVFCPGSSTCVVDQTNNAYCVTCNRICPEPASSEQYLCGNDGVTYSSACHLRKATCLLGRSIGLAYEGKCIKAKSCEDIQCTGGKKCLWDFKVGRGRCSLCDELCPDSKSDEPVCASDNATYASECAMKEAACSSGVLLEVKHSGSCNSISEDTEEEEEDEDQDYSFPISSILEW"}, "B2": {"name": "VGFR(½)/FST291-mFc (Fc fusion)", "chain 1": "GNCWLRQAKNGRCQVLYKTELSKEECCSTGRLSTSWTEEDVNDNTLFKWMIFNGGAPNCIPCKETCENVDCGPGKKCRMNKKNKPRCVCAPDCSNITWKGPVCGLDGKTYRNECALLKARCKEQPELEVQYQGRCKKTCRDVFCPGSSTCVVDQTNNAYCVTCNRICPEPASSEQYLCGNDGVTYSSACHLRKATCLLGRSIGLAYEGKCIKAKSCEDIQCTGGKKCLWDFKVGRGRCSLCDELCPDSKSDEPVCASDNATYASECAMKEAACSSGVLLEVKHSGSCNSISPRGPTIKPCPPCKCPAPNLLGGPSVFIFPPKIKDVLMISLSPIVTCVVVDVSEDDPDVQISWFVNNVEVHTAQTQTHREDYNSTLRVVSALPIQHQDWMSGKEFKCKVNNKDLPAPIERTISKPKGSVRAPQVYVLPPPEEEMTEKQVTLTCMVTDFMPEDIYVEWTNNGKTELNYKNTEPVLDSDGSYFMYSWLRVEKKNWVERNSYSCSVVHEGLHNHHTTKSFSRTPGK", "chain 2": "SDTGRPFVEMYSEIPEIIHMTEGRELVIPCRVTSPNITVTLKKFPLDTLIPDGKRIIWDSRKGFIISNATYKEIGLLTCEATVNGHLYKTNYLTHRQTNTIIDVVLSPSHGIELSVGEKLVLNCTARTELNVGIDFNWEYPSSKHQHKKLVNRDLKTQSGSEMKKFLSTLTIDGVTRSDQGLYTCAASSGLMTKKNSTFVRVHEKPRGPTIKPCPPCKCPAPNLLGGPSVFIFPPKIKDVLMISLSPIVTCVVVDVSEDDPDVQISWFVNNVEVHTAQTQTHREDYNSTLRVVSALPIQHQDWMSGKEFKCKVNNKDLPAPIERTISKPKGSVRAPRVYVLPPPEEEMTKKQVTLTCMVTDFMPEDIYVEWTNNGKTELNYKNTEPVLVSDGSYTMYSKLRVEKKNWVERNSYSCSVVHEGLHNHHTTKSFSRTPGKLVPRGSHHHHHH", "notes": "Fc heterodimer (knobs-in-holes, murine IgG2A); also called VGFR(1/2)/FST291-mFc; type 4 design compound"}, "B3": {"name": "TNFR2/FST291-mFc (Fc fusion)", "chain 1": "B2 chain 1", "chain 2": "LPAQVAFTPYAPEPGSTCRLREYYDQTAQMCCSKCSPGQHAKVFCTKTSDTVCDSCEDSTYTQLWNWVPECLSCGSRCSSDQVETQACTREQNRICTCRPGWYCALSKQEGCRLCAPLRKCRPGFGVARPGTETSDVVCKPCAPGTFSNTTSSTDICRPHQICNVVAIPGNASMDAVCTSTSPTRSMAPGAVHLPQPVSTRSQHTQPTPEPSTAPSTSFLLPMGPSPPAEGSTGDPRGPTIKPCPPCKCPAPNLLGGPSVFIFPPKIKDVLMISLSPIVTCVVVDVSEDDPDVQISWFVNNVEVHTAQTQTHREDYNSTLRVVSALPIQHQDWMSGKEFKCKVNNKDLPAPIERTISKPKGSVRAPRVYVLPPPEEEMTKKQVTLTCMVTDFMPEDIYVEWTNNGKTELNYKNTEPVLVSDGSYTMYSKLRVEKKNWVERNSYSCSVVHEGLHNHHTTKSFSRTPGKLVPRGSHHHHHH", "notes": "Fc heterodimer (knobs-in-holes, murine IgG2A); also called type 4 design compound"}, "B4": {"name": "VGFR(½)-mFc-FSD1 (Fc fusion)", "chain": "SDTGRPFVEMYSEIPEIIHMTEGRELVIPCRVTSPNITVTLKKFPLDTLIPDGKRIIWDSRKGFIISNATYKEIGLLTCEATVNGHLYKTNYLTHRQTNTIIDVVLSPSHGIELSVGEKLVLNCTARTELNVGIDFNWEYPSSKHQHKKLVNRDLKTQSGSEMKKFLSTLTIDGVTRSDQGLYTCAASSGLMTKKNSTFVRVHEKPRGPTIKPCPPCKCPAPNLLGGPSVFIFPPKIKDVLMISLSPIVTCVVVDVSEDDPDVQISWFVNNVEVHTAQTQTHREDYNSTLRVVSALPIQHQDWMSGKEFKCKVNNKDLPAPIERTISKPKGSVRAPQVYVLPPPEEEMTKKQVTLTCMVTDFMPEDIYVEWTNNGKTELNYKNTEPVLDSDGSYFMYSKLRVEKKNWVERNSYSCSVVHEGLHNHHTTKSFSRTPGKETCENVDCGPGKKCRMNKKNKPRCVCAPDCSNITWKGPVCGLDGKTYRNECALLKARCKEQPELEVQYQGRCK", "notes": "expressed in CHO cells; also called VGFR(1/2)-mFc-FSD1; type 2 design compound"}, "B5": {"name": "TNFR2-mFc-FSD1 (Fc fusion)", "chain": "LPAQVAFTPYAPEPGSTCRLREYYDQTAQMCCSKCSPGQHAKVFCTKTSDTVCDSCEDSTYTQLWNWVPECLSCGSRCSSDQVETQACTREQNRICTCRPGWYCALSKQEGCRLCAPLRKCRPGFGVARPGTETSDVVCKPCAPGTFSNTTSSTDICRPHQICNVVAIPGNASMDAVCTSTSPTRSMAPGAVHLPQPVSTRSQHTQPTPEPSTAPSTSFLLPMGPSPPAEGSTGDPRGPTIKPCPPCKCPAPNLLGGPSVFIFPPKIKDVLMISLSPIVTCVVVDVSEDDPDVQISWFVNNVEVHTAQTQTHREDYNSTLRVVSALPIQHQDWMSGKEFKCKVNNKDLPAPIERTISKPKGSVRAPQVYVLPPPEEEMTKKQVTLTCMVTDFMPEDIYVEWTNNGKTELNYKNTEPVLDSDGSYFMYSKLRVEKKNWVERNSYSCSVVHEGLHNHHTTKSFSRTPGKETCENVDCGPGKKCRMNKKNKPRCVCAPDCSNITWKGPVCGLDGKTYRNECALLKARCKEQPELEVQYQGRCK", "notes": "expressed in CHO cells; also called type 2 design compound"}}, "key": {"[1]": {"target": "T1, activin A (human, UniProt P08476 311-426)", "T1 sequence": "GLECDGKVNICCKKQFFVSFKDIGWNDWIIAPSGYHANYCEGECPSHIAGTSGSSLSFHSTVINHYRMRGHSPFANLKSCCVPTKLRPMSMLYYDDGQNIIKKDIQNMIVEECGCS", "test": "cell-based or functional assay"}, "[2]": {"target": "T2, myostatin (Homo sapiens (Human), UniProt O14793 267-375)", "T2 sequence": "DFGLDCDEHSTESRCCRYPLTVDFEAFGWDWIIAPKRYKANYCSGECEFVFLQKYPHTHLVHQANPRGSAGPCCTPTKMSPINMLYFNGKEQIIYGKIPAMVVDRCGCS", "test": "cell-based or functional assay"}, "[3]": {"target": "T3, GDF11 (Growth Differentiation Factor 11) (Homo sapiens (Human), UniProt O95390 299-407)", "T3 sequence": "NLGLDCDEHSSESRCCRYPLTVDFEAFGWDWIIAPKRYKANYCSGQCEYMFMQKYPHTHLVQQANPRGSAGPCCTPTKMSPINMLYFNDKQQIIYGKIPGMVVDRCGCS", "test": "cell-based or functional assay"}, "[4]": {"target": "T1, activin A", "test": "cell-based or functional assay", "remark": "listed apart in the source"}, "[5]": {"target": "T2, myostatin", "test": "cell-based or functional assay", "remark": "listed apart in the source"}, "[6]": {"target": "T3, GDF11 (Growth Differentiation Factor 11)", "test": "cell-based or functional assay", "remark": "listed apart in the source"}, "[7]": {"target": "VEGF (Vascular Endothelial Growth Factor) (UniProt P15692-4 27-191)", "sequence (P15692 other isoform, or with tags, fused parts or gaps limits assumed)": "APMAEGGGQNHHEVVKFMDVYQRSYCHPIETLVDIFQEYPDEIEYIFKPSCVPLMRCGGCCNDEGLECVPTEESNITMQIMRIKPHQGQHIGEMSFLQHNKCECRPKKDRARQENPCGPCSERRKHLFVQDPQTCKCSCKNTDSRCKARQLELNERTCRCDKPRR", "test": "SPR (Biacore 3000, 25 °C): compound captured to about 1,000 RU on a CM5 chip with the mouse antibody capture kit, VEGF injected for 120 s, 300 s dissociation", "procedure": "(§1) Surface plasmon resonance (SPR) experiments were carried out on a Biacore 3000 (Cytiva). A CM5 chip for capture of the compounds was prepared according to the instructions of the mouse antibody capture kit (Cytiva, #BR100838). VGFR(½)-mFc-FSD1, TNFR2-mFc-FSD1, VGFR(½)/FST291-mFc, TNFR2/FST291-mFc, VGFR(½)-hFc (Aflibercept), TNFR2-hFc (Etanercept), and FST315dHBS-mFc (SEQ ID NO: 30, SEQ ID NO: 31) were captured to approximately 1,000 RU (Resonance Units). TNFα (R&D Systems, #210-TA-005,) or VEGF (R&D Systems, #293-VE-010) were then injected for 120 s followed by a 300 s dissociation phase. At the end of each binding cycle, non-covalently attached molecules were removed from both surfaces by a 180 s regeneration with 10 mM glycine, pH 1.7. All proteins were diluted in running buffer ([…], pH 7.5, […], 2 mM CaCl₂) and 0.05% Tween 20). A flow rate of 30 μl/min was used in all steps of the experiments. Binding analysis was performed at 25° C., and data were collected at a rate of 1 Hz. Using the BIAevaluation 4.1.1 software (Cytiva), recorded signals were referenced; the signal from the in-line reference flow cell was subtracted as was the signal from a blank run (0 nM analyte)."}, "[8]": {"target": "T1, activin A", "test": "cell-based or functional assay", "remark": "listed apart in the source"}, "[9]": {"target": "T2, myostatin", "test": "cell-based or functional assay", "remark": "listed apart in the source"}, "[10]": {"target": "T3, GDF11 (Growth Differentiation Factor 11)", "test": "cell-based or functional assay", "remark": "listed apart in the source"}, "[11]": {"target": "TNFα (Tumor Necrosis Factor alpha) (UniProt P01375 77-233)", "sequence (P01375 77-233 limits assumed)": "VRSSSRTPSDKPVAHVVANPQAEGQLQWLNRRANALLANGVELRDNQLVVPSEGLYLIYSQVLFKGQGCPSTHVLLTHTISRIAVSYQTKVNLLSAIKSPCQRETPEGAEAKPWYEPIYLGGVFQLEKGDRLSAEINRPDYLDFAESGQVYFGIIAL", "test": "SPR (Biacore 3000, 25 °C): compound captured to about 1,000 RU on a CM5 chip with the mouse antibody capture kit, TNFα injected for 120 s, 300 s dissociation", "procedure": "as §1"}, "[12]": {"target": "T2, myostatin", "test": "cell-based or functional assay", "remark": "listed apart in the source"}, "[13]": {"target": "T3, GDF11 (Growth Differentiation Factor 11)", "test": "cell-based or functional assay", "remark": "listed apart in the source"}, "[14]": {"target": "T1, activin A", "test": "cell-based or functional assay", "remark": "listed apart in the source"}}, "note": "Where two headings read alike, the source gives them in different places."}
{"binder": "B1", "values": [{"measurement": "IC50, neutralisation of 1 ng/mL activin A (pSmad2/3 luciferase reporter, HEK293 cells)", "setting": "[1]", "value": 53, "unit": "pM"}, {"measurement": "IC50, neutralisation of 1 ng/mL myostatin (pSmad2/3 luciferase reporter, HEK293 cells)", "setting": "[2]", "value": 210, "unit": "pM"}, {"measurement": "IC50, neutralisation of 1 ng/mL GDF11 (pSmad2/3 luciferase reporter, HEK293 cells)", "setting": "[3]", "value": 119, "unit": "pM"}]}
{"binder": "B2", "values": [{"measurement": "IC50, neutralisation of 1 ng/mL activin A (pSmad2/3 luciferase reporter, HEK293 cells) [cont. B]", "setting": "[4]", "value": 584, "unit": "pM"}, {"measurement": "IC50, neutralisation of 1 ng/mL myostatin (pSmad2/3 luciferase reporter, HEK293 cells) [cont. B]", "setting": "[5]", "value": 1640, "unit": "pM"}, {"measurement": "IC50, neutralisation of 1 ng/mL GDF11 (pSmad2/3 luciferase reporter, HEK293 cells) [cont. B]", "setting": "[6]", "value": 3450, "unit": "pM"}, {"measurement": "binding result", "setting": "[7]", "value": "binds"}]}
{"binder": "B3", "values": [{"measurement": "IC50, neutralisation of 1 ng/mL activin A (pSmad2/3 luciferase reporter, HEK293 cells) [cont. C]", "setting": "[8]", "value": 525, "unit": "pM"}, {"measurement": "IC50, neutralisation of 1 ng/mL myostatin (pSmad2/3 luciferase reporter, HEK293 cells) [cont. C]", "setting": "[9]", "value": 1610, "unit": "pM"}, {"measurement": "IC50, neutralisation of 1 ng/mL GDF11 (pSmad2/3 luciferase reporter, HEK293 cells) [cont. C]", "setting": "[10]", "value": 4490, "unit": "pM"}, {"measurement": "binding result", "setting": "[11]", "value": "binds"}]}
{"binder": "B4", "values": [{"measurement": "IC50, neutralisation of 1 ng/mL myostatin (pSmad2/3 luciferase reporter, HEK293 cells) [cont. B]", "setting": "[12]", "value": 37, "unit": "nM"}, {"measurement": "IC50, neutralisation of 1 ng/mL GDF11 (pSmad2/3 luciferase reporter, HEK293 cells) [cont. C]", "setting": "[13]", "value": 21, "unit": "nM"}, {"measurement": "IC50, neutralisation of 1 ng/mL activin A (pSmad2/3 luciferase reporter, HEK293 cells)", "setting": "[14]", "value": 18, "unit": "nM"}, {"measurement": "binding result", "setting": "[7]", "value": "binds"}]}
{"binder": "B5", "values": [{"measurement": "binding result", "setting": "[11]", "value": "binds"}]}
